Experimental data from patent US9873733B2, “Anti-staphylococcal antibodies” (priority 2012, dated 2018).

How the values were obtained:
[1] = test system: S. aureus SA113 Δspa; assay: Killing of S. aureus by nisin with MprF antibodies; type: cell-based, Staphylococcus aureus; conditions: antibody 100 μg/ml, 22.5 μg/ml nisin, 2 hours; anti-lysozyme antibody as control
Description: In this experiment killing of Staphylococcus aureus was tested. Nisin was used as an exemplary cationic antimicrobial compound. Nisin was tested in combination with selected antibodies of the present invention. An anti-lysozyme antibody was used as a negative control.
(§1) Overnight cultures of S. aureus SA113 Δspa were diluted in fresh MHB medium and adjusted to OD600 0.25 (˜1.5×10^7 cells). Antibodies were adjusted to a concentration of 1 mg/ml and 10 μl were applied per well of a 96 well plate and diluted in 90 μl of the adjusted cell suspension (final antibody concentration: 100 μg/ml). Cells were grown in the presence of anti-lysozyme antibody (control) or with the anti-MprF antibodies. Duplicates were employed for each assay. After 3 hours of incubation under shaking conditions at 37° C., optical density was determined, adjusted to OD600 0.025 in 500 μl ice cold PBS buffer. 80 μl of the adjusted cell suspension were diluted with 20 μl of antimicrobial substances to final concentrations of 22.5 μg/ml nisin. After incubation for 2 hours under shaking conditions at 37° C., the cell suspensions were diluted 1:2000 and 100 μl of each duplicate was plated in triplicates on TSB medium containing agar plates to obtain a representative value of bacterial survival. Cells treated without antimicrobial substance were set at 100% and survival values were calculated with cells treated with antimicrobial substances. At least three independent assays were employed.

[2] = test system: S. aureus SA113 Δspa (MprF-mediated flipping of lysyl-phosphatidylglycerol); assay: Annexin V assay; type: cell-based, Staphylococcus aureus; conditions: flow cytometry; anti-lysozyme pre-treated cells set at 100%
Description: Annexin V binds preferentially to negatively charged phospholipids and is therefore a useful tool for measuring the relative content of MprF-mediated flipping of lysyl-phosphatidylglycerol, as translocation leads to reduced accessibility of negatively charged phospholipids in the outer leaflet of the membrane and therefore to reduced binding of annexin V. Cells (S. aureus SA113 Δspa) were grown in the presence of M-C4.1 or anti-lysozyme antibody and then treated with annexin V for 15 minutes before being analyzed by flow cytometry for surface-bound fluorophore (FL-4 channel). Data are expressed in relative fluorescence units and compared to cells pre-treated with anti-lysoyzme set at 100% fluorescence.

[3] = test system: Staphylococcus aureus clinical isolate 703; assay: Killing of clinical isolate 703 by daptomycin; type: cell-based; conditions: 11 μg/ml daptomycin; anti-lysozyme antibody as control
Description: as §1
In this experiment killing of Staphylococcus aureus clinical isolate 703 (described in Jones et al., AAC 2008) by daptomycin in the presence of an MprF specific antibody was analyzed. […]

[4] = test system: S. aureus SA113 Δspa; assay: Killing of S. aureus by daptomycin with MprF antibodies; type: cell-based, Staphylococcus aureus; conditions: antibody 100 μg/ml, 12.5 μg/ml Daptomycin; anti-lysozyme antibody as control
Description: as §1
The previous experiment was repeated, but instead of nisin, daptomycin is used. […]

[5] = test system: S. aureus SA113 Δspa (flippase reaction of MprF); assay: Cytochrome C repulsion assay; type: cell-based, Staphylococcus aureus; conditions: pre-incubation 3 hours, compared to anti-lysozyme antibodies
Description: The repulsion of positively charged cytochrome C has been repeatedly employed to investigate charge dependent cell surface modifications in bacteria, including the flippase reaction of MprF, which leads to increased positively charged lipids in the outer leaflet of the membrane and to increased repulsion of cytochrome C (Ernst et al., PLoS Pathogens 2009). Briefly, cells were grown in the presence of M-C4.1 or anti-lysozyme for 3 hours, followed by incubation with cytochrome C for 15 minutes and measurement of optical density of the supernatant in order to determine repulsion of positively charged cytochrome C. The established cytochrome C repulsion assay was scaled down to accommodate for the reduced amount of bacteria employed in the killing-assays.

[6] = test system: MprF on S. aureus (Protein A deletion mutant, delta spa); assay: Whole cell ELISA on S. aureus; type: binding, Staphylococcus aureus; conditions: E. coli as negative control
Description: (§2) The specificity of the purified antibodies was tested for binding to whole cell Staphylococcus aureus in an ELISA assay. Escherichia coli bacteria were used as a negative control.
(§3) For ELISA on S. aureus the Protein A deletion mutant (delta spa) or the mutant with an additional deletion in MprF (delta spa delta mprf) were grown to mid log phase, than washed in PBS and resuspended in saline to a final OD600 of 0.6. This bacterial culture was coated on Maxisorp plates (Nunc). Plates were blocked with 2% BSA/PBS and washed with TSB containing 0.5% TWEEN20.

[7] = test system: S. aureus mutants lacking MprF expression (delta spa delta mprF); assay: Whole cell ELISA on S. aureus mutant lacking MprF; type: binding, Staphylococcus aureus; conditions: compared with delta spa
Description: as §2, §3

[8] = test system: S. aureus SA113 Δspa; assay: Killing of S. aureus by LL-37 with MprF antibodies; type: cell-based, Staphylococcus aureus; conditions: antibody 100 μg/ml, 45.0 μg/ml LL-37; anti-lysozyme antibody as control
Description: as §1
The previous experiment was repeated, but instead of nisin LL-37 is used. […]

[9] = target: cyclic peptide representing loop 4 of MprF (Staphylococcus aureus, UniProt Q2G2M2); conditions: IgG in PBS; biotinylated cyclic peptide 5 μg/ml
Description: The IgGs were tested for binding to the antigen, which was used in their selection. Also binding to other MprF-peptides was tested to check for selectivity.
For ELISAs with cyclic antigen, the biotinylated cyclic peptides (final conc. 5 μg/ml) were incubated with IgGs in PBS. Then the mix was transferred to a pre-blocked Neutravidin plate (Thermo Scientific), incubated and then the plate was washed with PBS containing 0.5% of TWEEN20. MprF-specific IgGs were detected using goat-anti-human IgG (Sigma).
In both cases washing was performed using PBST ([…] with 0.05% TWEEN20. Detection was performed using alkaline phosphatase coupled Goat anti-human IgG (Sigma Cat. # A-8542 and Attophos™ substrate Roche, Cat. #11681982001). Fluorescence was measured at an excitation of 440±25 nm and an emission of 550±35 nm. Full signal intensity is typically reached after 5-15 min at room temperature.

B1: M-C4.1: human IgG1 against cyclic peptide, loop 4 of MprF; VH1A kappa 1; VL Seq. ID: 44, VH Seq. ID: 45 (antibody, V domains shown)
VH: QVQLVQSGAEVKKPGSSVKVSCKASGGTFNSYAISWVRQAPGQGLEWMGGIIPIFGMATYAQKFQGRVTITADESTSTAYMELSSLRSEDTAVYYCARSLFGRAYWGQGTLVTVSS
VL: DIQMTQSPSSLSASVGDRVTITCRASQSISSFLAWYQQKPGKAPKLLIYDASSLQSGVPSRFSGSGSGTDFTLTISSLQPEDFATYYCLQADSTSYTFGQGTKVEIKRT
modifications: MC41 VH; MC41 VL
notes: human IgG1 against cyclic peptide, loop 4 of MprF; VH1A kappa 1; ID: 45
Sensitivity of S. aureus towards nisin (killing, bacterial survival) [1]: most pronounced effects
Increased binding of annexin V [2]: 70%
Susceptibility of S. aureus 703 to daptomycin (killing) with MprF antibody [3]: restored susceptibility of S. aureus 703 bacteria to daptomycin
Sensitivity of S. aureus towards daptomycin (killing) [4]: increased the sensitivity of Staphylococcus aureus towards daptomycin
Decreased repulsion of cytochrome C [5]: 40%
Binding to whole cell S. aureus (ELISA) [6]: detect MprF on S. aureus
Binding to S. aureus mutants lacking MprF expression (ELISA) [7]: significantly weaker binding
Sensitivity of S. aureus towards LL-37 (killing) [8]: increased the sensitivity of Staphylococcus aureus towards LL-37
Specific binding to cyclic loop 4 peptide (ELISA) [9]: specifically bind to cyclic loop 4 peptide in a dose-dependent manner
